No end group written: not given here.
Key:
WiDr cells = assay: Phage binding specificity test (output/input ratio); parameters: species or system human; conditions: fifth pool, PhD-C7C library
P815MUC1 cells = assay: Competition of phage binding by synthetic peptides; parameters: species or system mouse; conditions: for inhibition of WPY phage binding: increasing amounts of peptide (WPY 0.1, 10 and 500 μM)
Experimental: Synthetic peptides corresponding to the WPY and LPQ sequences of the previously selected phages (second and fourth sequences of Table 3) were synthetized (Neosystem, strasbourg, France). Increasing amounts of WPY peptide (0.1, 10 and 500 μM) and LPQ peptide (0.1, 10 and 1000 μM) or control peptides GHL and SGR (a non-selected phage from the PhD-C7C library) were diluted in a total volume of 1 ml of PBS-BSA1 % with 5.10^6 P815MUC1 cells and incubated for 1 hour at 4° C. under slight agitation. 1.10^10 WPY or LPQ phages in 200 μl of PBS-1% BSA were added and incubated with the cells and the peptide for two hours at 4° C. under slight agitation. Cells were then washed and bound phages eluted and titered following the same protocol as for the selections.

[1] = biological target: coxsackievirus-adenovirus receptor (CAR) on cells (UniProt P78310); assay: cell-based or functional assay
Chain of UniProt P78310 (P78310 20-365 limits assumed): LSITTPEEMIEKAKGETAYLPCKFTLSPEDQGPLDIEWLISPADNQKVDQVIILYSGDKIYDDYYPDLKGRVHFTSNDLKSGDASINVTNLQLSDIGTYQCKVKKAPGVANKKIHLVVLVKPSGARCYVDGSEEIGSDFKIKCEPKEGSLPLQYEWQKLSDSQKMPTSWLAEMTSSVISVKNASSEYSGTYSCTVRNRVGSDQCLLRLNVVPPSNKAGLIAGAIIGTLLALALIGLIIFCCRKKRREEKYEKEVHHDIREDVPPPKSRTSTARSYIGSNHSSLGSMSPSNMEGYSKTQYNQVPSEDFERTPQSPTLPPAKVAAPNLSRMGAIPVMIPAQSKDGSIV

[2] = biological target: MUC1 as expressed on P815MUC1 cells (P815 mouse mastocytoma cells transfected with MUC1 and Neomycin expression cassettes) (UniProt P15941); assay: phage titration on MUC1-transfected against control-transfected P815 cells (FIG. 4)
[3] = biological target: MUC1 as expressed on P815MUC1 cells (P815 mouse mastocytoma cells transfected with MUC1 and Neomycin expression cassettes) (UniProt P15941); assay: phage titration on P815MUC1 cells (1.5e11 phages, 1e7 cells; FIG. 4); the same is said of MUC1-negative P815pAG60 cells
[4] = increasing amounts of peptide (LPQ 0.1, 10 and 1000 μM), 1.10^10 phages, 4° C.

Row | Molecule | fold binding to P815MUC1 cells over P815pAG60 cells [2] [times] | fold higher affinity than the control phages (M13, GHL) [3] [fold] | further results
1 | CLPSTRQTC [CLPSTRWTC] |  |  | binding to WiDr cells compared to the subtractor 293 cells (WiDr cells): specific binding
2 | LPQRAFWVPPIV |  |  | inhibition of LPQ phage binding (P815MUC1 cells; [4]): inhibit in a dose-dependant manner
3 | GHLIPLRQPSHQ [GHL used as control peptide and non-selected PhD12 control phage, reference compound] |  |  | inhibition of LPQ phage binding (P815MUC1 cells; [4]): did not significatively inhibit; inhibition of WPY phage binding (P815MUC1 cells; 1.10^10 phages, 4° C.): did not significatively inhibit
4 | Adenovirus type 5 wild-type fiber protein, as carried by the Ad-fbwt virus (from UniProt P11818 1-581) |  |  | inhibition of infection of 293 and HeLa cells (β-galactosidase activity, % of control) by soluble knob at 10 µg/ml [1]: > 90%
5 | CWPYPSHFC |  |  | inhibition of LPQ phage binding (P815MUC1 cells; 500 μM concentration of non-corresponding peptide): did not significatively inhibit; inhibition of WPY phage binding (P815MUC1 cells; 1.10^10 phages, 4° C.): inhibit in a dose-dependant manner
6 | WPTSPWSSRDWS (not fully specified (C-terminus)) | > 3 | > 100 | 
7 | MPLPQPSHLPLL (not fully specified (C-terminus)) [MPL phage (M13 phage of the PhD-12 library displaying …)] | > 3 | > 100 | 
8 | WPTSPWLEREPA (not fully specified (C-terminus)) | > 3 | > 100 | 
9 | LPQRAFWVPPIV (not fully specified (C-terminus)) [LPQ phage (M13 phage of the PhD-12 library displaying …)] | > 3 | > 100 | 
10 | WPVRPWMPGPVV (not fully specified (C-terminus)) [WPV phage (M13 phage of the PhD-12 library displaying …)] | > 3 | > 100 | 

Reference: patent publication US20040102382A1, “Targeting peptides” (priority 2002, published 2004)
